Laboratory results from paper PMC11251181, “Crystal structure of MAGEA4 MHD-RAD18 R6BD reveals a flipped binding mode compared to AlphaFold2 prediction” (The EMBO Journal, 2024).
No end group written: not given here.

Biological target: T1, MAGEA4 MAGE homology domain (MHD), residues D101-V317 (human, UniProt P43358 101-317)
T1 construct: MAGEA4, human, MAGE homology domain, residues D101-V317; His6 tag removed with TEV protease; also called MAGEA4 MHD; MAGEA4-MHD; source: E. coli BL21 (DE3), purified (Ni-NTA, TEV cleavage, Superdex-75 SEC); not shown: His6, N-terminal, cleaved
T1 sequence (looked up): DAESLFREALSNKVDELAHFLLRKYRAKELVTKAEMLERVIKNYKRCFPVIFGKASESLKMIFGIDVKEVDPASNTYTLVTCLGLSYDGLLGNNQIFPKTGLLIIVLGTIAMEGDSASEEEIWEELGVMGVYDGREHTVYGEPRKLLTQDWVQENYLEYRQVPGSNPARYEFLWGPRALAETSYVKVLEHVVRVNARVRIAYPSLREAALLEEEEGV
Assay: crystal structure; MAGEA4 MHD (10.3 mg/mL) incubated on ice with a 1:2 molar ratio of RAD18 R6BD in 20 mM Tris HCl pH 7.5, 200 mM NaCl, 1 mM TCEP; sitting drop vapor diffusion; 2.58 Å
Settings: both partners purified

B1: RAD18 RAD6-binding domain (R6BD) peptide, residues H339-G366 (peptide, UniProt Q9NS91 339-366, looked up)
peptide: HSKYRKKHKSEFQLLVDQARKGYKKIAG-NH2
notes: also called RAD18 R6BD; source: synthetic peptide (UNC Chapel Hill High-Throughput Peptide Synthesis and Array Facility)
binding result: binds
